Changes are numbered by the printed parent chain.
Assays:
[1] = target: T1, MED25 ACID His474Glu (analyte) (human, UniProt Q71SY5 391-553, His474Glu); assay: BLI
T1 sequence (looked up): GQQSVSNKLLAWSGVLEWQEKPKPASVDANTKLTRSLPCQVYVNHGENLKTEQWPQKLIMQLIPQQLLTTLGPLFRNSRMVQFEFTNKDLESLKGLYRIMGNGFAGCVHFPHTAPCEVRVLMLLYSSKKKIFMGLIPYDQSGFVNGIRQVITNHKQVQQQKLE

[2] = target: T2, MED25 ACID Met523Glu (analyte) (human, UniProt Q71SY5 391-553, Met523Glu); assay: BLI
T2 sequence (looked up): T1 sequence (looked up) with E84H, M133E

[3] = target: T3, MED25 ACID Ile521Glu (analyte) (human, UniProt Q71SY5 391-553, Ile521Glu); assay: BLI
T3 sequence (looked up): T1 sequence (looked up) with E84H, I131E

[4] = target: T4, MED25 ACID Tyr487Ser (analyte) (human, UniProt Q71SY5 391-553, Tyr487Ser); assay: BLI
T4 sequence (looked up): T1 sequence (looked up) with E84H, Y97S

[5] = target: T5, MED25 ACID Arg466Glu (analyte) (human, UniProt Q71SY5 391-553, Arg466Glu); assay: BLI
T5 sequence (looked up): T1 sequence (looked up) with R76E, E84H

[6] = target: T6, MED25 ACID Lys518Ala/Lys519Ala/Lys520Ala (analyte) (human, UniProt Q71SY5 391-553, Lys518Ala | Lys519Ala | Lys520Ala); assay: BLI
T6 sequence (looked up): T1 sequence (looked up) with E84H, K128A, K129A, K130A

[7] = target: T7, MED25 ACID Leu514Glu (analyte) (human, UniProt Q71SY5 391-553, Leu514Glu); assay: BLI
T7 sequence (looked up): T1 sequence (looked up) with E84H, L124E

[8] = target: T8, MED25 ACID Gln430Glu (analyte) (human, UniProt Q71SY5 391-553, Gln430Glu); assay: BLI
T8 sequence (looked up): T1 sequence (looked up) with Q40E, E84H

[9] = target: T9, MED25 ACID (residues 391–553), from pET28 (human, UniProt Q71SY5 391-553); assay: NMR titration
T9 sequence (looked up): T1 sequence (looked up) with E84H

ETV4 WT;MED25 ACID = ETV4 WT;MED25 ACID (human?;human, UniProt P43268;Q71SY5 1-484;391-553, |); assay: EMSA
ETV4 Phe428Ala/Phe432Ala = ETV4 Phe428Ala/Phe432Ala (UniProt P43268 1-484, F428A;F432A); assay: EMSA
ETV4 Leu430Ala = ETV4 Leu430Ala (UniProt P43268 1-484, L430A); assay: EMSA
Sequence of ETV4 Leu430Ala (P43268 whole entry L430A): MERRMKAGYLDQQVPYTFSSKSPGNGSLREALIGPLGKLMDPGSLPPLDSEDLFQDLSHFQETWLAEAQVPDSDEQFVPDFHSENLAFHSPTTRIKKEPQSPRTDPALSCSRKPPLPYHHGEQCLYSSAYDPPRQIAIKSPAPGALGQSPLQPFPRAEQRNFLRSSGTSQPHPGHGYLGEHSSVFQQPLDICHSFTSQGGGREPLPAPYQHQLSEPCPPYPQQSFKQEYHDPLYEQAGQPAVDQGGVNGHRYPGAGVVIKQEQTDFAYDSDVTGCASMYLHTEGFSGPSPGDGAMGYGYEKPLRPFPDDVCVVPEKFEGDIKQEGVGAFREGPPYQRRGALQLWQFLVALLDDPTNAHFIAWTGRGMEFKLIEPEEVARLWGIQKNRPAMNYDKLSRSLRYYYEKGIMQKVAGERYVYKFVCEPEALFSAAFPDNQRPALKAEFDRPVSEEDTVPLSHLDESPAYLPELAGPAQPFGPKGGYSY

Sequence of ETV4 Phe428Ala/Phe432Ala (P43268 whole entry F428A/F432A): as the sequence (P43268 whole entry L430A) above, with F428A, A430L, F432A counted along it
Sequence of ETV4 WT;MED25 ACID (P43268 whole entry, one chain of several): as the sequence (P43268 whole entry L430A) above, with A430L counted along it

B1: ETV4^337–436 (DNA-binding domain), biotinylated ligand for biolayer interferometry (domain or fragment, UniProt P43268 337-436, looked up)
chain: RRGALQLWQFLVALLDDPTNAHFIAWTGRGMEFKLIEPEEVARLWGIQKNRPAMNYDKLSRSLRYYYEKGIMQKVAGERYVYKFVCEPEALFSLAFPDNQ
modifications: biotin (biotinylated; D-biotin added at the induction point)
[1]
  binding result: binds
[2]
  binding result: binds
[3]
  binding result: binds
[4]
  binding result: binds
[5]
  binding result: binds
[6]
  binding result: binds
[7]
  binding result: binds
[8]
  binding result: binds

B2: ETV4^337–436 (DNA-binding domain), from pET28 (domain or fragment, UniProt P43268 337-436, looked up)
chain: B1 chain
[9]
  binding result: binds

B3: 27-bp consensus ETS duplex (dsDNA)
DNA 1: TCGACGGCCAAGCCGGAAGTGAGTGCC
DNA 2: TCGAGGCACTCACTTCCGGCTTGGCCG
ETV4 WT;MED25 ACID
  Kd: 2.1 ± 0.5 nM
ETV4 Phe428Ala/Phe432Ala
  Kd: 3.7 ± 0.8 nM
ETV4 Leu430Ala
  Kd: 1.9 ± 0.4 nM
